Data as given in the supplement of paper PMC7125110.
± gives the standard error. This sample holds only a part of the variants without activity.

B1: glmS ribozyme (parent)
chain: AUAAAAGCGCCAGAACUACAGAAAUGUAGUUGACGAGGAGGAGGUUUAUCGAAUUUUCGGCGGAUGCCUCCAAA

Columns and labels:
Conditions in all cases: with glucosamine-6-phosphate
[1] = variants of: B1; assay: self-cleavage kobs at 160 uM GlcN6P; higher = faster cleavage; RNA array
Method in brief: (§1)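 The measurements used barcoded ribozyme variants on sequenced MiSeq chips, transcribed in situ by E. coli RNA polymerase and tracked at 37 °C with a hybridised Cy3 probe. Glucosamine-6-phosphate, 40 μM to 10 mM in HEPES/KCl/Mg(OAc)2 buffer, was flowed in while tiles were imaged over ~14 h. Baseline-normalised signals, also normalised to non-cleaving reference variants, gave per-tile medians that were fit to one- or two-exponential decays for kobs. kcat and KM resulted from weighted Michaelis–Menten fits across concentrations.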

[2] = variants of: B1; assay: self-cleavage kobs at 640 uM GlcN6P; higher = faster cleavage; RNA array
Method in brief: as §1

[3] = variants of: B1; assay: self-cleavage kobs at 2500 uM GlcN6P; higher = faster cleavage; RNA array
Method in brief: as §1

[4] = variants of: B1; assay: self-cleavage kobs at 10000 uM GlcN6P; higher = faster cleavage; RNA array
Method in brief: as §1

Variant	self-cleavage kobs at 160 uM GlcN6P [1] [s⁻¹]	self-cleavage kobs at 640 uM GlcN6P [2] [s⁻¹]	self-cleavage kobs at 2500 uM GlcN6P [3] [s⁻¹]	self-cleavage kobs at 10000 uM GlcN6P [4] [s⁻¹]
G9U C34G G40C A48U C61U	< 1e-05			
G13A G51A C70A	6.55e-05 ± 2.4e-05			
A12U G29A C68U	0.000209 ± 5.1e-05	0.000265 ± 6.4e-05	0.0017 ± 0.0004	0.00275 ± 0.0012
C10A A12G A15G C61A	< 1e-05			
C11A C16U G44U A53G C71G	< 1e-05	< 1e-05		
A12G G40U A53G C67U	< 1e-05	< 1e-05		
C10A A14C G37C G44U C61U	< 1e-05			
C11U G44U G60A C61G	< 1e-05	< 1e-05	< 1e-05	< 1e-05
G13C U45C U46C C68A C70G	< 1e-05		< 1e-05	
A12U A14C G40C A42U U45G	< 1e-05	< 1e-05		
C10U A12G G63U	< 1e-05		< 1e-05	
C10U G60U C70G	< 1e-05	< 1e-05		
G9U A12G G29A U56A	< 1e-05	< 1e-05	< 1e-05	
A12U G38C A53G U55C C67G	< 1e-05	< 1e-05	< 1e-05	
C10U A33C G43U G44A C67G	< 1e-05	< 1e-05	< 1e-05	
C10G A42G G44C A53G G60U	< 1e-05	< 1e-05		
A12C C16G C70U	0.000215 ± 8.1e-05	0.000259 ± 9.1e-05	0.00151 ± 0.00044	
G9U A42C	< 1e-05		< 1e-05	
G13A A33G A36U G40U U55A	< 1e-05	< 1e-05	< 1e-05	
C11G A12G G13C A14G	< 1e-05	< 1e-05	< 1e-05	< 1e-05
G13A G35C C71U	< 1e-05	< 1e-05		
A12C G59U	< 1e-05		< 1e-05	< 1e-05
G9C C34A	< 1e-05	< 1e-05	< 1e-05	
C11G A39C A64U	< 1e-05	< 1e-05		
C11U A33C A53U	< 1e-05	< 1e-05		
A12C A39U U46A C50G	< 1e-05	< 1e-05	< 1e-05	

Variant	self-cleavage kobs at 160 uM GlcN6P [1] [s⁻¹]	self-cleavage kobs at 640 uM GlcN6P [2] [s⁻¹]	self-cleavage kobs at 2500 uM GlcN6P [3] [s⁻¹]	self-cleavage kobs at 10000 uM GlcN6P [4] [s⁻¹]
C11U U46A U54G	< 1e-05		4.93e-05 ± 1.7e-05	
C10U C34G	< 1e-05	< 1e-05	< 1e-05	< 1e-05
C10G U55A	< 1e-05	< 1e-05		
C10G A36C	< 1e-05	< 1e-05	< 1e-05	
G9C G44U	< 1e-05	< 1e-05	< 1e-05	< 1e-05
G9U U56C G62C	< 1e-05	< 1e-05		
G9A A52U C58U C70G	< 1e-05	< 1e-05		
C10U G44A U57C G62A	< 1e-05	< 1e-05		
A14C A39G C58G G60U G62U	< 1e-05		< 1e-05	
A12C G35U G41U	< 1e-05	< 1e-05		
C11A A14C G35A C50G C71G	0.000211 ± 3.9e-05	0.000433 ± 0.00014	0.000131 ± 4.3e-05	
C11U A14G A39G G60C	< 1e-05	< 1e-05		
A12C C34U	< 1e-05		< 1e-05	< 1e-05
C11A A53C C67G	< 1e-05	< 1e-05		
G13C G43C C70A	< 1e-05			
A12U C61A U69G	< 1e-05			
C11A G29A C34A U57C	< 1e-05	< 1e-05		
G13C A53U G59A C71U	< 1e-05		< 1e-05	
A12U G35C	< 1e-05	< 1e-05		< 1e-05
A12U A42U G44U C67G	3.69e-05 ± 1.5e-05	0.000122 ± 3.2e-05	0.000326 ± 9.4e-05	
G9U A15U A39U U69C	< 1e-05	< 1e-05		
C11U A39U U49G	< 1e-05	< 1e-05	< 1e-05	
C10U G29U U57C C67U U69G	6.16e-05 ± 1.7e-05	8.17e-05 ± 1.9e-05	6.3e-05 ± 2e-05	
G9A U46G	< 1e-05	< 1e-05		< 1e-05
G9U C58G G63U	< 1e-05		< 1e-05	< 1e-05
